{
  "source": "patent US20160272693A1",
  "about": "(ZEALAND PHARMA A S, published 2016)",
  "key": {"[1]": {"target": "T1, human amylin receptor 3 (hAMYR3), hCTR2 co-expressed with human receptor activity modifying protein 3 (hRAMP3) (human, UniProt P30988 25-474; O60896 24-148)", "T1 sequence (looked up) 1": "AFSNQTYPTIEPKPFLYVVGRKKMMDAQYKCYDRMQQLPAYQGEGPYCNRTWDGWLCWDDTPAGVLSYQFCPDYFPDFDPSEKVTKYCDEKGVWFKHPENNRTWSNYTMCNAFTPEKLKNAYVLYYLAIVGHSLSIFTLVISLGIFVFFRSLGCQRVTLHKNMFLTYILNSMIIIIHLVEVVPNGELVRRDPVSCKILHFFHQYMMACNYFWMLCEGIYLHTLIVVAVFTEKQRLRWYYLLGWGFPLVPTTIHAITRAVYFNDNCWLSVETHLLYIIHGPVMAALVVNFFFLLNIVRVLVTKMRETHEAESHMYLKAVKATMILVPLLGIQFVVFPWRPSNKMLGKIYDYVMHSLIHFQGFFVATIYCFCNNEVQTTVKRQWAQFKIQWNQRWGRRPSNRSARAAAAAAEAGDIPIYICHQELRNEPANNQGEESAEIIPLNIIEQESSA", "T1 sequence (looked up) 2": "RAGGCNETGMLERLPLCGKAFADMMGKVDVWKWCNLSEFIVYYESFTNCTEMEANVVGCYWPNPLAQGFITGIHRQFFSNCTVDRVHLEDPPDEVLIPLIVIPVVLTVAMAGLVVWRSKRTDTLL", "assay": "cell-based or functional assay"}, "[2]": {"target": "T1, human amylin receptor 3 (hAMYR3), hCTR2 …", "assay": "cell-based or functional assay", "remark": "listed apart in the source"}},
  "note": "Where two headings read alike, the source gives them in different places. *1 amine or outer side, *2 acyl side, *3 side chain or, on linkers, in order; H or OH if unused. Bridges are numbered along the chain shown (N, C = ends). The star is where a group is joined. C20 diacid = O=C(O)CCCCCCCCCCCCCCCCCCC(=O)*; γGlu = O=C(O)[C@H](CCC(=O)[*:2])N[*:1]",
  "data": [
    {"binder": "{C20 diacid-γGlu}-RCNTATCATQRLAEFLHHSSNNFGPILPPTNVGSNTP-NH2 (disulfide 2-7; SMILES CC[C@H](C)[C@H](NC(=O)[C@@H]1CCCN1C(=O)CNC(=O)[C@H](Cc1ccccc1)NC(=O)[C@H](CC(N)=O)NC(=O)[C@H](CC(N)=O)NC(=O)[C@H](CO)NC(=O)[C@H](CO)NC(=O)[C@H](Cc1c[nH]cn1)NC(=O)[C@H](Cc1c[nH]cn1)NC(=O)[C@H](CC(C)C)NC(=O)[C@H](Cc1ccccc1)NC(=O)[C@H](CCC(=O)O)NC(=O)[C@H](C)NC(=O)[C@H](CC(C)C)NC(=O)[C@H](CCCNC(=N)N)NC(=O)[C@H](CCC(N)=O)NC(=O)[C@@H](NC(=O)[C@H](C)NC(=O)[C@@H]1CSSC[C@H](NC(=O)[C@H](CCCNC(=N)N)NC(=O)CC[C@H](NC(=O)CCCCCCCCCCCCCCCCCCC(=O)O)C(=O)O)C(=O)N[C@@H](CC(N)=O)C(=O)N[C@@H]([C@@H](C)O)C(=O)N[C@@H](C)C(=O)N[C@@H]([C@@H](C)O)C(=O)N1)[C@@H](C)O)C(=O)N[C@@H](CC(C)C)C(=O)N1CCC[C@H]1C(=O)N1CCC[C@H]1C(=O)N[C@H](C(=O)N[C@@H](CC(N)=O)C(=O)N[C@H](C(=O)NCC(=O)N[C@@H](CO)C(=O)N[C@@H](CC(N)=O)C(=O)N[C@H](C(=O)N1CCC[C@H]1C(N)=O)[C@@H](C)O)C(C)C)[C@@H](C)O)", "values": [
      {"measurement": "hAMYR3 EC50 (nM); cAMP induction", "setting": "[1]", "value": 0.15, "unit": "nM"},
      {"measurement": "hAMYR3 EC50 (nM); cAMP induction", "setting": "[2]", "value": 0.15, "unit": "nM"}
    ]}
  ]
}
